# Test results as given in publication PMC3764169.
# Target: αVβ3 integrin (human (endogenous in THP-1)) (UniProt P06756)
# Chain of UniProt P06756 (P06756 31-1048, chain 1 of 2): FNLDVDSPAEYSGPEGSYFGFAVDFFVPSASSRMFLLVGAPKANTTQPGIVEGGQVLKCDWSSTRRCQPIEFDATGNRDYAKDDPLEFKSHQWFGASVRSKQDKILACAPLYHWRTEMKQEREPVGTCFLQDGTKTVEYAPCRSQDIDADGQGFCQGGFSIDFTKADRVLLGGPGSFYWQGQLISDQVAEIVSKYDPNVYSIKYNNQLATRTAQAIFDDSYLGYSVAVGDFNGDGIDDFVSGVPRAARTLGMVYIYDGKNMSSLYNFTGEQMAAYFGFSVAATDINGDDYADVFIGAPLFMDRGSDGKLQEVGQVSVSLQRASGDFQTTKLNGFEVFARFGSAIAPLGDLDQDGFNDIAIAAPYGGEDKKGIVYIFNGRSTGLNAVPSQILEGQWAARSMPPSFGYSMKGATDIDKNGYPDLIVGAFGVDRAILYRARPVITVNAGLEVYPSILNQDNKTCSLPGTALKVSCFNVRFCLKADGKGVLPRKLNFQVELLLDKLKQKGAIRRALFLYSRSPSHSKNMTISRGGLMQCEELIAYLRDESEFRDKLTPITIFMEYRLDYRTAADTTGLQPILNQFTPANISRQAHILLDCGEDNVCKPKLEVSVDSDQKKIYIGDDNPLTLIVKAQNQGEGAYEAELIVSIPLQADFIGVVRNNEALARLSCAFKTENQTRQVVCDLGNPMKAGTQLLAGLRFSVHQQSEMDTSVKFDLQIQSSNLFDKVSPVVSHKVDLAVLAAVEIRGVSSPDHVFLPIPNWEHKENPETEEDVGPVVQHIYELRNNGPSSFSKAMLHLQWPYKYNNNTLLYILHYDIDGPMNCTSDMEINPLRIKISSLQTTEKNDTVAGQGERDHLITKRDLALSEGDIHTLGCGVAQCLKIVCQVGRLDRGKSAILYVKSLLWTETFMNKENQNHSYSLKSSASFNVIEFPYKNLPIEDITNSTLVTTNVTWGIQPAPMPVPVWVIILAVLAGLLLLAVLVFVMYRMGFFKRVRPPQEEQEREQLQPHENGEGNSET
# Chain of UniProt P06756 (P05106 27-788, chain 2 of 2, further chain): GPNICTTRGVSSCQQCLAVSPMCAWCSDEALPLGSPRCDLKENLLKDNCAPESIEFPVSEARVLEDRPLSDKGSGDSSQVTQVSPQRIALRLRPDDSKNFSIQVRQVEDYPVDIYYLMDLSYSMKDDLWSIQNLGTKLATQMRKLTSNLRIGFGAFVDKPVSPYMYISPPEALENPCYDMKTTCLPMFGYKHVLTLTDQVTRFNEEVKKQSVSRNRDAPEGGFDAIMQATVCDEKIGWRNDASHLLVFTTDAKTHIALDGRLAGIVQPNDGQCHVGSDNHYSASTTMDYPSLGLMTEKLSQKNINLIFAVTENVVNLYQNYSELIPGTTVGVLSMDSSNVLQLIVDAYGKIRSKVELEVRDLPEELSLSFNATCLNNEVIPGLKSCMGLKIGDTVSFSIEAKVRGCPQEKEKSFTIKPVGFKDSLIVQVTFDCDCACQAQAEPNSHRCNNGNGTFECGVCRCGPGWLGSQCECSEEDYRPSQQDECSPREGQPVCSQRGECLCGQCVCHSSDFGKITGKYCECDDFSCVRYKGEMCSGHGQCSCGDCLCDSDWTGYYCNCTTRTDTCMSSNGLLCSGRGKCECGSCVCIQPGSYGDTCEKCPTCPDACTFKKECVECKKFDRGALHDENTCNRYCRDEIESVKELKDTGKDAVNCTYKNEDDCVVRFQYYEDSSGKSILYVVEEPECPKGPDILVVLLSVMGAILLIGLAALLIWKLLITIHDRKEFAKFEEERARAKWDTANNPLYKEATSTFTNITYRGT
substance,measurement,value
Lunasin (peptide),"decrease in free intracellular Ca^2+ (Fluo-4, live-cell confocal imaging) in LPS-induced THP-1 macrophages after lunasin (1 µM), over 6.67 min (400 frames); resurgence after 30 min",34.6%
